Earlier results on one substance are cited in PMC10188253 (Molecular pharmaceutics, 2022).

Read-outs that look alike come from different tables or passages of the source.

This series has as its system B16/F10 melanoma. The conditions noted are these: ref [25].

As to ^64Cu-CB-TE1A1P-PEG4-LLP2A, the B16/F10 melanoma uptake reads like this: (2 h post-injection) 15.1 ± 1.0 % ID/g; (4 h post-injection) 16.9 ± 2.2 % ID/g. For the same substance, the “VLA-4-specific uptake in normal lung, bone and spleen” value (2 h post-injection) was 4.6–18.1 % ID/g.
